Test in all cases: cryo-EM structure
In assay [1] the target is BMC-T^D2 shell protein of the Haliangium ochraceum (HO) BMC shell (Haliangium ochraceum) (UniProt D0LID6).
Assay [2] concerns the target BMC-T^D3 shell protein of the Haliangium ochraceum (HO) BMC shell (Haliangium ochraceum) (UniProt D0LV02).
Assay [3] concerns the target BMC-T^S1 shell protein of the Haliangium ochraceum (HO) BMC shell (Haliangium ochraceum).

The source of these data is publication PMC6506404.

Broadly, the stoichiometry N is a count of units in the complex or per binding partner. In turn, “BMC-T^D2 shell protein of the Haliangium ochraceum (HO) BMC shell (from UniProt D0LID6 1-212) (natural protein)” yielded a stoichiometry N in assay [1] of 6. On to “BMC-T^D3 shell protein of the Haliangium ochraceum (HO) BMC shell (from UniProt D0LV02 1-206) (natural protein)”, for which the stoichiometry N in assay [2] amounted to 6. Consider “BMC-T^S1 shell protein of the Haliangium ochraceum (HO) BMC shell (natural protein)”, for which the stoichiometry N in assay [3] stood at 3.
